According to article PMC7793584 (Science Advances, 2021):
Values belong to the molecule of their own block, whether it stands above or below them.

B1: Hda2 (natural protein)
chain: MSRKNSKKLKVYYLPVTLTQFQKDLSEILISLHAKSFKASIIGEPQADAVNKPSGLPAGPETHPYPTLSQRQLTYIFDSNIRAIANHPSLLVDHYMPRQLLRMEPTESSIAGSHKFQVLNQLINSICFRDREGSPNEVIKCAIIAHSIKELDLLEGLILGKKFRTKRLSGTSLYNEKHKFPNLPTVDSTINKDGTPNSVSSTSSNSNSTSYTGYSKDDYDYSVKRNLKKRKINTDDWLFLATTKHLKHDQYLLANYDIDMIISFDPMLEVELPALQVLRNNANKDIPIIKLLVQNSPDHYLLDSEIKNSSVKSSHLSNNGHVDDSQEYEEIKSSLLYFLQARNAPVNNCEIDYIKLVKCCLEGKDCNNILPVLDLITLDEASKDSSDSGFWQPQLTKLQYSSTELPLWDGPLDIKTYQTELMHRAVIRLRDIQDEYAKGTVPLYEKRLNETQRQNQLDEIKNSVGLTFKKKQEVEKSINDSEKRLKHAMTESTKLQNKINHLLKNRQELENFNKLPSNTISSENHLEEGSALADKLKEYIDKNATLFNKLKELQQANAEKSKLNDELRSKYQIESSKAAESAQTLKILQESMKSLENEVNGPLTKFSTESLKKELERLQNDFQSLKARNKFLKNYITLMNRQYDLKNKNNVQVEKAAANGTRFRSTRSNTPNYT
B2: Hda1 (enzyme)
chain: MDSVMVKKEVLENPDHDLKRKLEENKEEENSLSTTSKSKRQVIVPVCMPKIHYSPLKTGLCYDVRMRYHAKIFTSYFEYIDPHPEDPRRIYRIYKILAENGLINDPTLSGVDDLGDLMLKIPVRAATSEEILEVHTKEHLEFIESTEKMSREELLKETEKGDSVYFNNDSYASARLPCGGAIEACKAVVEGRVKNSLAVVRPPGHHAEPQAAGGFCLFSNVAVAAKNILKNYPESVRRIMILDWDIHHGNGTQKSFYQDDQVLYVSLHRFEMGKYYPGTIQGQYDQTGEGKGEGFNCNITWPVGGVGDAEYMWAFEQVVMPMGREFKPDLVIISSGFDAADGDTIGQCHVTPSCYGHMTHMLKSLARGNLCVVLEGGYNLDAIARSALSVAKVLIGEPPDELPDPLSDPKPEVIEMIDKVIRLQSKYWNCFRRRHANSGCNFNEPINDSIISKNFPLQKAIRQQQQHYLSDEFNFVTLPLVSMDLPDNTVLCTPNISESNTIIIVVHDTSDIWAKRNVISGTIDLSSSVIIDNSLDFIKWGLDRKYGIIDVNIPLTLFEPDNYSGMITSQEVLIYLWDNYIKYFPSVAKIAFIGIGDSYSGIVHLLGHRDTRAVTKTVINFLGDKQLKPLVPLVDETLSEWYFKNSLIFSNNSHQCWKENESRKPRKKFGRVLRCDTDGLNNIIEERFEEATDFILDSFEEWSDEE

Tests used:
[1] = molecular target: HDAC protomer complex (Hda1_(2)-Hda2-Hda3 heterotetrameric complex) (S. cerevisiae) (UniProt P53973); assay: cryo-EM structure
Hda1 [2] = molecular target: B2; assay: SEC-MALS
SEC-MALS = molecular target: the molecule itself; assay: SEC-MALS
Hda1 [3] = molecular target: B2; assay: cryo-EM structure
Hda2 = molecular target: B1; assay: cryo-EM structure

stoichiometry N [1]: 2
Molecule: HDAC protomer complex (Hda1_(2)-Hda2-Hda3 heterotetrameric complex) (from UniProt P53973;Q06629;Q06623)

Molecule: B1
binding result (Hda1 [2]): binds

Molecule: B2
stoichiometry N (SEC-MALS): 2

binding result (Hda1 [3]): binds
binding result (Hda2): binds
B3: Hda3 (natural protein)
chain: MDLLRILDTKPIPTIVDATTLGISGNTSGDYWLPTTMSLYQKELTDQIVSLHYSDILRYFETSHYKEDVILESMKTMCLNGSLVATHPYLLIDHYMPKSLITRDVPAHLAENSGKFSVLRDLINLVQEYETETAIVCRPGRTMDLLEALLLGNKVHIKRYDGHSIKSKQKANDFSCTVHLFSSEGINFTKYPIKSKARFDMLICLDTTVDTSQKDIQYLLQYKRERKGLERYAPIVRLVAINSIDHCRLFFGKKFDKNSREYLENVTAAMVILRDRLGTLPPDLRPIYSQKLHYLVEWLENPTVPWPLPDIYPLKQYTSMDVERSLLTEVHFKKSDDQLEDAFSNCSKKRGRHGANKAASSTVAGIEDNITPSFYSTKRLKNDYYTNPLKQDMTQLTGITTADNSSNVNYHLSSGIITHKLIQSMGEVYMDICVQKQELDDYSCLDDLQNDHLKFFSNEDEKIIKEYETVLRTNNENLNRSHELEVENNLKFSQIETLEKDIETLKGSLMAQGETLSKLKDAFVKTDNVQDEIEKEERVSVSRDTEKKYMEQEIKRAVDAIRENEEETHKLNEKQNGLESELKLKFEKSEISTKELNEKIGFLKKELKLENDLNEELVGQLSKTMDNLENLTIPRVRTQNGNTKKKSRAKKPGNV
